# Data taken from patent US20220332795A1 (ARO BIOTHERAPEUTICS, published 2022).
# Positions count from the first letter of the chain named.
# B1: SEQ ID NO 225 (designed binder, not shown: small tags and cut ends)
# chain: MLPAPKNLVVSRVTEDSARLSWTAPDAAFDSFYIAYAEPRPDGEAILLQVPGSERSYDLTGLKPGTEYSVLIHGVKGGLLSSPLSASFTT
# B2: SEQ ID NO 211 (designed binder, not shown: small tags and cut ends)
# chain: B1 chain with L47Q, Q49H, S85V, S87I
# B3: SEQ ID NO 209 (designed binder, not shown: small tags and cut ends)
# chain: B1 chain with E54C, S85T, S87I
# notes: also called ABX1198
# B4: SEQ ID NO 212 (designed binder, not shown: small tags and cut ends)
# chain: B1 chain with L47W, Q49A, S85H, S87Q
# B5: SEQ ID NO 207 (designed binder, not shown: small tags and cut ends)
# chain: B1 chain with L47H, Q49S, S85A, S87Y
# B6: SEQ ID NO 215 (designed binder, not shown: small tags and cut ends)
# chain: B1 chain with L47V, Q49W, S85I, S87E
# B7: SEQ ID NO 206 (designed binder, not shown: small tags and cut ends)
# chain: B1 chain with L47G, Q49D, S87I
# B8: SEQ ID NO 217 (designed binder, not shown: small tags and cut ends)
# chain: B1 chain with L47I, Q49E, S85R, S87V
# B9: SEQ ID NO 214 (designed binder, not shown: small tags and cut ends)
# chain: B1 chain with L47G, S85C, S87E
# B10: SEQ ID NO 241 (designed binder, not shown: small tags and cut ends)
# chain: MLPAPKNLVVSRVTEDSARLSWTAPDAAFDSFFIGYLEPQPPGEAIHLGVPGSERSYDLTGLKPGTEYNVTIQGVKGGFPSIPLFASFTT
# B11: SEQ ID NO 31 (designed binder, not shown: small tags and cut ends)
# chain: MLPAPKNLVVSRVTEDSARLSWTAPDAAFDSFTIEYSEHPIDGEAIPLFVPGSERSYDLTGLKPGTEYYVRIHGVKGGWFSHPLWAFFTT
# notes: FN3 domain, hit of the apical domain panning
# B12: SEQ ID NO 35 (designed binder, not shown: small tags and cut ends)
# chain: MLPAPKNLVVSRVTEDSARLSWTAPDAAFDSFPISYIESIADGEAIVLTVPGSERSYDLTGLKPGTEYWVAIVGVKGGPFSWSLSAIVTT
# notes: as for B11
# B13: SEQ ID NO 24 (designed binder, not shown: small tags and cut ends)
# chain: MLPAPKNLVVSRVTEDSARLSWTAPDAAFDSFMIRYQEGTRWGEAIVLTVPGSERSYDLTGLKPGTEYIVMIAGVKGGQISLPLSAIFTT
# notes: as for B11
# B14: SEQ ID NO 25 (designed binder, not shown: small tags and cut ends)
# chain: MLPAPKNLVVSRVTEDSARLSWTAPDAAFDSFPIWYLEKSYQGEAIVLTVPGSERSYDLTGLKPGTEYVVPIIGVKGGRDSCPLSAIFTT
# notes: as for B11
# B15: SEQ ID NO 27 (designed binder, not shown: small tags and cut ends)
# chain: MLPAPKNLVVSRVTEDSARLSWTAPDAAFDSFRISYAETVRQGEAIVLTVPGSERSYDLTVETGYRNWVMILGVKGGPGSLPLSAIFTT
# notes: as for B11
# Target: T1, human CD71 extracellular domain (human, UniProt P02786 89-760, biotinylated)
# T1 construct: extracellular domain; also called hCD71; huCD71 ECD
# T1 sequence (P02786 other isoform, or with tags, fused parts or gaps): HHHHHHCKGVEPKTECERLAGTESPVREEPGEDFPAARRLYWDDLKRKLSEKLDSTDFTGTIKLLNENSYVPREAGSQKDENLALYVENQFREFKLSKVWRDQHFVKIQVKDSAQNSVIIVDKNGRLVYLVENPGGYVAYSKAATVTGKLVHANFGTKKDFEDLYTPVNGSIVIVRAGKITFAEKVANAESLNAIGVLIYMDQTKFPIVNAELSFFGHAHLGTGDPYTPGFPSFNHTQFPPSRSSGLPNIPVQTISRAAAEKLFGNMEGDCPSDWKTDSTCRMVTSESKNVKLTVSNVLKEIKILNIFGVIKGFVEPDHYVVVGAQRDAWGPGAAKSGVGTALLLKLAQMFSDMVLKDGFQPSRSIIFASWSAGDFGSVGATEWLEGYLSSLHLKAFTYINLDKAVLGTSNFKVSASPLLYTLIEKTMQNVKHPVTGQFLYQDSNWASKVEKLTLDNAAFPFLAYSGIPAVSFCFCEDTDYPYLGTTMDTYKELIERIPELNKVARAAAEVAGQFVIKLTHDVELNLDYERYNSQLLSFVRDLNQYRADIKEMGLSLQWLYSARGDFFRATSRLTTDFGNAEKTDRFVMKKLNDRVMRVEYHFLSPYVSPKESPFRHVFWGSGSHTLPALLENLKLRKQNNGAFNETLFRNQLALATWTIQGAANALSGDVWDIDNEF
# Assay: solution ELISA screen, signal ratio to HSA control
row,hCD71:HSA [ratio],Binder
1,239,B1
2,50.6,B2
3,348,B3
4,26.8,B4
5,22.6,B5
6,90.4,B6
7,59.1,B7
8,214,B8
9,13,B9
10,117,B10

# Target: T2, CD71 apical domain (human, UniProt P02786 189-383, limits assumed)
# T2 construct: domain: apical domain
# T2 sequence (P02786 189-383 limits assumed): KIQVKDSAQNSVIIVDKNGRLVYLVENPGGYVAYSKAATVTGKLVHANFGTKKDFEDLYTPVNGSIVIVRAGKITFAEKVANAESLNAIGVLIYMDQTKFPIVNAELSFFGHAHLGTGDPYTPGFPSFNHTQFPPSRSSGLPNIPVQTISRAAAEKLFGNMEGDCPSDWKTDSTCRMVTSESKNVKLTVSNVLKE
# Assay: solution ELISA screen, signal ratio to HSA control
row,apical domain:HSA [ratio],Binder
1,435,B1
2,363,B2
3,466,B3
4,292,B4
5,58.8,B5
6,261,B6
7,373,B7
8,420,B8
9,143,B9
10,190,B10

# Target: T3, recombinant biotinylated CD71 extracellular domain (Sino Biologics) with an N-terminal 6His tag (human, UniProt P02786 89-760, biotinylated (site not stated))
# T3 construct: extracellular domain; also called hCD71; huCD71 ECD
# T3 sequence (P02786 other isoform, or with tags, fused parts or gaps): as the sequence (P02786 other isoform, or with tags, fused parts or gaps) above
# Assay: primary solution ELISA screen, signal on hCD71 over HSA
row,hCD71:HSA,Binder
1,138,B11
2,106,B12
3,374,B13
4,58,B14
5,127,B15

# Target: T3, recombinant biotinylated CD71 …
# Assay: primary solution ELISA screen
row,RLU [RLU],Binder
1,642000,B11
2,1.99e+06,B12
3,2.45e+06,B13
4,222000,B14
5,297000,B15

# Target: T1, human CD71 extracellular domain
# Assay: solution ELISA screen (luminescence)
row,RLU [RLU],Binder
1,4.06e+06,B1
2,660000,B2
3,6.2e+06,B3
4,467000,B4
5,2.74e+06,B5
6,2.02e+06,B6
7,828000,B7
8,3.48e+06,B8
9,393000,B9
10,3.1e+06,B10

# Target: T2, CD71 apical domain
# Assay: solution ELISA screen (luminescence)
row,RLU [RLU],Binder
1,7.38e+06,B1
2,4.74e+06,B2
3,8.3e+06,B3
4,5.09e+06,B4
5,7.11e+06,B5
6,5.84e+06,B6
7,5.22e+06,B7
8,6.81e+06,B8
9,4.3e+06,B9
10,5.05e+06,B10
